# Assay results taken from publication PMC12744356.
# Biological target: EsxX glycine zipper peptide (EsxX 448-476), N-terminal biotin (Staphylococcus aureus (ST398))
# Experiment: BLI; biotinylated peptide captured on streptavidin SAX biosensors (~1.0 nm); ExiABhis 50 uM to 1.6 uM in 2-fold dilutions in 10X Kinetics Buffer; association 180 s at 25 C; 1:1 kinetic model and steady-state model
substance,measurement,value
ExiA-ExiBhis dimer (complex),Kd,22 µM
same,stoichiometry N,1
